# Reference: the Human Domainome abundance scans (Beltran et al. 2025)
# ± gives the uncertainty stated by the source.
# B1: Nucleosome-remodeling factor subunit BPTF, residues 2862 to 2918; numbered along this chain, Q12830 (parent)
# chain: TKKDTKLYCICKTPYDESKFYIGCDRCQNWYHGRCVGILQSEAELIDEYVCPQCQST
# Variants of: B1
# Experiment: abundance fitness (aPCA) (normalised: wild type 0, dead -1); higher = more abundant; growth selection in yeast, the domain comes from the species named
# Conditions: Homo sapiens
row,Variant,abundance fitness
1,TKKDTKLYCICKTPYDTSKFYIGCDRCQNWYHGRCVGILQSEAELIDEYVCPQCQST [E17T],-0.2 ± 0.083
2,TKKDTKLYCICKTPYDASKFYIGCDRCQNWYHGRCVGILQSEAELIDEYVCPQCQST [E17A],-0.042 ± 0.076
3,TKKDTKLYCICKTPYDDSKFYIGCDRCQNWYHGRCVGILQSEAELIDEYVCPQCQST [E17D],-0.013 ± 0.1
4,TKKDTKLYCICKTPYDYSKFYIGCDRCQNWYHGRCVGILQSEAELIDEYVCPQCQST [E17Y],-0.294 ± 0.12
5,TKKDTKLYCICKTPYDLSKFYIGCDRCQNWYHGRCVGILQSEAELIDEYVCPQCQST [E17L],-0.172 ± 0.065
6,TKKDTKLYCICKTPYDRSKFYIGCDRCQNWYHGRCVGILQSEAELIDEYVCPQCQST [E17R],-0.304 ± 0.063
7,TKKDTKLYCICKTPYDCSKFYIGCDRCQNWYHGRCVGILQSEAELIDEYVCPQCQST [E17C],-0.288 ± 0.084
8,TKKDTKLYCICKTPYDWSKFYIGCDRCQNWYHGRCVGILQSEAELIDEYVCPQCQST [E17W],-0.412 ± 0.081
9,TKKDTKLYCICKTPYDISKFYIGCDRCQNWYHGRCVGILQSEAELIDEYVCPQCQST [E17I],-0.155 ± 0.1
10,TKKDTKLYCICKTPYDVSKFYIGCDRCQNWYHGRCVGILQSEAELIDEYVCPQCQST [E17V],-0.289 ± 0.068
11,TKKDTKLYCICKTPYDHSKFYIGCDRCQNWYHGRCVGILQSEAELIDEYVCPQCQST [E17H],-0.168 ± 0.14
12,TKKDTKLYCICKTPYDMSKFYIGCDRCQNWYHGRCVGILQSEAELIDEYVCPQCQST [E17M],-0.131 ± 0.1
13,TKKDTKLYCICKTPYDNSKFYIGCDRCQNWYHGRCVGILQSEAELIDEYVCPQCQST [E17N],-0.172 ± 0.11
14,TKKDTKLYCICKTPYDGSKFYIGCDRCQNWYHGRCVGILQSEAELIDEYVCPQCQST [E17G],0.055 ± 0.08
15,TKKDTKLYCICKTPYDSSKFYIGCDRCQNWYHGRCVGILQSEAELIDEYVCPQCQST [E17S],-0.065 ± 0.078
16,TKKDTKLYCICKTPYDQSKFYIGCDRCQNWYHGRCVGILQSEAELIDEYVCPQCQST [E17Q],-0.074 ± 0.09
17,TKKDTKLYCICKTPYDPSKFYIGCDRCQNWYHGRCVGILQSEAELIDEYVCPQCQST [E17P],-0.153 ± 0.081
18,TKKDTKLYCICKTPYDKSKFYIGCDRCQNWYHGRCVGILQSEAELIDEYVCPQCQST [E17K],-0.013 ± 0.099
19,TKKDTKLYCICKTPYDFSKFYIGCDRCQNWYHGRCVGILQSEAELIDEYVCPQCQST [E17F],-0.052 ± 0.11
20,TKKDTKLYCICKTPYDESKGYIGCDRCQNWYHGRCVGILQSEAELIDEYVCPQCQST [F20G],-0.226 ± 0.08
21,TKKDTKLYCICKTPYDESKYYIGCDRCQNWYHGRCVGILQSEAELIDEYVCPQCQST [F20Y],-0.08 ± 0.12
22,TKKDTKLYCICKTPYDESKDYIGCDRCQNWYHGRCVGILQSEAELIDEYVCPQCQST [F20D],-0.062 ± 0.13
23,TKKDTKLYCICKTPYDESKLYIGCDRCQNWYHGRCVGILQSEAELIDEYVCPQCQST [F20L],-0.193 ± 0.075

row,Variant,abundance fitness
1,TKKDTKLYCICKTPYDESKIYIGCDRCQNWYHGRCVGILQSEAELIDEYVCPQCQST [F20I],-0.244 ± 0.12
2,TKKDTKLYCICKTPYDESKMYIGCDRCQNWYHGRCVGILQSEAELIDEYVCPQCQST [F20M],-0.149 ± 0.087
3,TKKDTKLYCICKTPYDESKNYIGCDRCQNWYHGRCVGILQSEAELIDEYVCPQCQST [F20N],-0.044 ± 0.13
4,TKKDTKLYCICKTPYDESKQYIGCDRCQNWYHGRCVGILQSEAELIDEYVCPQCQST [F20Q],-0.104 ± 0.092
5,TKKDTKLYCICKTPYDESKTYIGCDRCQNWYHGRCVGILQSEAELIDEYVCPQCQST [F20T],-0.009 ± 0.093
6,TKKDTKLYCICKTPYDESKKYIGCDRCQNWYHGRCVGILQSEAELIDEYVCPQCQST [F20K],-0.192 ± 0.099
7,TKKDTKLYCICKTPYDESKWYIGCDRCQNWYHGRCVGILQSEAELIDEYVCPQCQST [F20W],-0.083 ± 0.08
8,TKKDTKLYCICKTPYDESKSYIGCDRCQNWYHGRCVGILQSEAELIDEYVCPQCQST [F20S],-0.11 ± 0.072
9,TKKDTKLYCICKTPYDESKPYIGCDRCQNWYHGRCVGILQSEAELIDEYVCPQCQST [F20P],-0.001 ± 0.097
10,TKKDTKLYCICKTPYDESKCYIGCDRCQNWYHGRCVGILQSEAELIDEYVCPQCQST [F20C],-0.346 ± 0.11
11,TKKDTKLYCICKTPYDESKEYIGCDRCQNWYHGRCVGILQSEAELIDEYVCPQCQST [F20E],-0.002 ± 0.1
12,TKKDTKLYCICKTPYDESKAYIGCDRCQNWYHGRCVGILQSEAELIDEYVCPQCQST [F20A],-0.161 ± 0.09
13,TKKDTKLYCICKTPYDESKRYIGCDRCQNWYHGRCVGILQSEAELIDEYVCPQCQST [F20R],-0.149 ± 0.067
14,TKKDTKLYCICKTPYDEVKFYIGCDRCQNWYHGRCVGILQSEAELIDEYVCPQCQST [S18V],-0.72 ± 0.12
15,TKKDTKLYCICKTPYDEKKFYIGCDRCQNWYHGRCVGILQSEAELIDEYVCPQCQST [S18K],-0.277 ± 0.27
16,TKKDTKLYCICKTPYDEHKFYIGCDRCQNWYHGRCVGILQSEAELIDEYVCPQCQST [S18H],-0.098 ± 0.11
17,TKKDTKLYCICKTPYDEQKFYIGCDRCQNWYHGRCVGILQSEAELIDEYVCPQCQST [S18Q],-0.5 ± 0.29
18,TKKDTKLYCICKTPYDELKFYIGCDRCQNWYHGRCVGILQSEAELIDEYVCPQCQST [S18L],-0.536 ± 0.1
19,TKKDTKLYCICKTPYDEIKFYIGCDRCQNWYHGRCVGILQSEAELIDEYVCPQCQST [S18I],-1.05 ± 0.26
20,TKKDTKLYCICKTPYDETKFYIGCDRCQNWYHGRCVGILQSEAELIDEYVCPQCQST [S18T],-0.198 ± 0.12
21,TKKDTKLYCICKTPYDEAKFYIGCDRCQNWYHGRCVGILQSEAELIDEYVCPQCQST [S18A],-0.217 ± 0.14
22,TKKDTKLYCICKTPYDEPKFYIGCDRCQNWYHGRCVGILQSEAELIDEYVCPQCQST [S18P],-0.759 ± 0.13
23,TKKDTKLYCICKTPYDEGKFYIGCDRCQNWYHGRCVGILQSEAELIDEYVCPQCQST [S18G],-0.087 ± 0.1
